This note sets out measurements from publication PMC6908968 (Cell, 2019).

In experiment [1] the target is T1, thermolysin-cleaved EBOV GP on Jurkat-GP cells (cleaved GP) (Zaire ebolavirus, Makona (GP1 core …, strain)).
T1 chain 1: not shown
T1 chain 2: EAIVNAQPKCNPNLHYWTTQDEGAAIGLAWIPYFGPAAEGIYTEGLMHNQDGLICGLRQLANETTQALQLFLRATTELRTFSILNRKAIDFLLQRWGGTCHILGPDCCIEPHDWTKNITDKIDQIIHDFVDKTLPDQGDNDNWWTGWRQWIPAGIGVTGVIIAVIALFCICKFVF

Experiment [2] concerns the target EBOV GP ectodomain residues 1-636 (GPec) (Zaire ebolavirus, strain  …, UniProt Q05320).

B1: 5.6.c3113 (antibody, V domains shown)
VH: EVQMVESGGGLAQPGGSLRLSCAASGFTFSSYEMSWVRQAPGKGLEWVSYISTSGNTIYYADSVKGRFTISRDNAKNSLYLQMNNLRAEDTAFYYCAANHGDNLFWYFDLWGRGTLVTVSS
VL: DIQLIQSPSFLSASVGDRVTITCRASQGISSYLAWYQQKLGKAPKLLMYAASTLQSGVPSRFSGSGSGTEFTLTISSLQPEDFATYYCQQLNGYPPTFGQGTKLEIK
For B1, the binding result in experiment [1] and in experiment [2] was “binds” throughout.

B2: 5.6.c3083 (antibody, V domains shown)
VH: QVQLVQSGVEVKKPGASVKLSCKASGYTFTTYGISWVRQAPGQGLEWMGWISAYDDNANYGQQFQGRVTMTTDTSTSTAYMELRSLRSDDTAVYFCARCGGEFIWGWLDPWGQGTLVTVSS
VL: QSALTQPASVSGSPGQSITISCTGTSSDIGGYNYVSWYQQHPGLAPKLMIYDVSYRPSGVSNRFSGSKSGNTASLTISGLQAEDEADYYCSSYTSSGTLVFGGGTKLTVL
In the case of B2, the binding result in experiment [1] and in experiment [2] was “binds” in each case.

B3: 5.6.c3133 (antibody, V domains shown)
VH: QVQLVQSGAEVKKPGSSVKVSCKTSGGTLSTYPFSWVRQAPGQGLEWMGGIIPFFGTTNYAQKFQGRLTMTADKSTNTVYMELGSLRSEDTAVYYCAREHGDDIYYYFAMDVWGQGTTVTVSS
VL: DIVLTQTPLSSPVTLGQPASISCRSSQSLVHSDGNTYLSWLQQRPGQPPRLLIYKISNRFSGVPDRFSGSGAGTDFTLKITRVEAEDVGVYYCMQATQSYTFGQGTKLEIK
As to B3, the binding result in experiment [1] and in experiment [2] was “binds” each time.

B4: 5.6.c3057 (antibody, V domains shown)
VH: QVQLVESGGGVVQSGRSLRLSCAASGFTLSSYGMHWVRQAPGKGLEWVATVSFDGNNEYYADSVKGRFTISRDKSKNTLYLQMNSLRPEDTAMYYCAKEPLPARGDFWSGHYSPPSYYYYGMDVWGQGTTVTVSS
VL: QTVVTQEPSFSVSPGGTVTLTCGLRSGSVSTNYYPSWYQQTPGQPPRTLIYNTNTRSFGVPDRFSGSILGNRAALTITGAQADDESDYYCLLYMDSGIWVFGGGTKLTVL
For B4, the binding result in experiment [1] and in experiment [2] was “binds” each time.

B5: 5.6.c3067 (antibody, V domains shown)
VH: EVQLVESGGGLVQPGGSLRLSCAASGFTFSNYWMTWVRQAPGKGLEWVGNIKEDGSEKYYVDSVKGRFTISRDNAKNSLYLQLNNLRAEDTAVYYCAREPAGFVFEGGFDYWGQGTLVTVSS
VL: DIQMTQSPSSVSASVGDRVTILCRASQYITTWLAWYQQKPGRAPKLLISAASTLQSGVPSRFSGSGSGTDFTLTISSLQPEDFATYYCQQAHSLPWTFGQGTKVEIK
For B5, the binding result in experiment [1] and in experiment [2] was “binds” throughout.

B6: 5.6.c3054 (antibody, V domains shown)
VH: QVTLRESGPALVKPTQTLTLTCTFSGFSLSTSGMCVSWIRQPPGKALEWLALIDWNDGKYYTTSLKTRLTISKDTSKNQVVLTMTNMDPVDTATYYCARIFTSSDWFYDAFDLWGQGAMVTVSS
VL: QIVMTQSPATLSVSPGERATLSCRASQSVNNNLAWYQQKPGQAPRLLISGASTRATGIPARFSGSGFGTEFTLTISSLQSEDFAVYYCQQYNTWPPLTFGPGTRVDIK
Turning to B6, the binding result in experiment [1] and in experiment [2] was “binds” throughout.

B7: 5.6.c3053 (antibody, V domains shown)
VH: QVQLVESGGGLVQPGRSLRLSCAASGFTFTNYGMQWVRQGPGKGLEWVALIWYDGYSKYYVDSVKGRFTISRDNSKNTLYLEMNSLRAEDTAVYYCARGNGYSSGWLDNWGQGTLVTVSS
VL: DIQMTQSPSTLSASVGDRVTITCRASQSIDNWLAWYQQKPGKAPKVLIYKASSLESGVPSRFSGSASGTEFTLTISSLQPDDFATYYCQHYNSYSGTFGQGTKVEIK
As for B7, the binding result in experiment [1] and in experiment [2] was “binds” throughout.

B8: 5.6.c3108 (antibody, V domains shown)
VH: QVQLVESGGGVVQPGRSLRLSCAASGFTFSNSDMHWVRQAPGKGLEWVALIYFDGSSQYYVDSVKGRFTISRDNSKNTLYLQMNSLRVEDTAVYYCAREAAIVGAIFYDGMDVWGQGTTVTVSS
VL: EIVMTQSPATLSVSPGEGATLSCRASQNVGFNVAWYQQRPGQAPRLLIYGASTRATGVPARFSGSGSGTEFTLTISSLQSEDFAVYYCQQCNNWPPLTFGGGTKVEIK
B8: the binding result in experiment [1] and in experiment [2] was “binds” throughout.
